Residue numbers refer to the chain shown, from its start. Numbers in names are those of the source.
T1: B7H3 on MDA-MB-231 cells (UniProt Q5ZPR3 29-534, limits assumed)
T1 construct: whole, on cells
T1 sequence (looked up): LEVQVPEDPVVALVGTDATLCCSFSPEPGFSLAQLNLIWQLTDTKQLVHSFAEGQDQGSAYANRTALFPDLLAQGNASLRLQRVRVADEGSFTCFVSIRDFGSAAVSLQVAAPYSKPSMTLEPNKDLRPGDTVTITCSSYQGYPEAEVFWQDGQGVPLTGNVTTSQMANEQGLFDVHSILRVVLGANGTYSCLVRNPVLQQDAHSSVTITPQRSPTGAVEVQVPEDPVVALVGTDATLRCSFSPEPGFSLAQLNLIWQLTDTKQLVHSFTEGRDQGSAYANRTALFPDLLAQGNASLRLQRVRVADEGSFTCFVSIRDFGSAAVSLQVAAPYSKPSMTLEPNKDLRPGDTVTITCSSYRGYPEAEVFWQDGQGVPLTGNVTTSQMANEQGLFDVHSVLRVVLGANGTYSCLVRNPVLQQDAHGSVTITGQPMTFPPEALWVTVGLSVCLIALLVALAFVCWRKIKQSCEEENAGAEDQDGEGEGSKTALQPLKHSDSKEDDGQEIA

B1: TY24859 (antibody, human IgG4 S228P, kappa, V domains shown)
VH: EVQLVESGGGLVQPGGSLRLSCAASGFSLSTGGVGVGWIRQAPGKGLEWIGEIYHSGSTYYSPSLKSRVTISRDNSKNTLYLQLNSLRAEDTAVYYCARYGYSYYALDYWGQGTLVTVSS
VL: DIQLTQSPSSLSASVGDRVTITCSASSSVGYVQWYQQKPGKAPKLLIYDASNLETGVPSRFSGSGSGTDFTLTISSLQPEDFATYYCQQSYTSPRTFGQGTKVEIKR
notes: hIgG4/S241P
B2: TY24866 (antibody, human IgG4 S228P, kappa, V domains shown)
VH: B1 VH with S62P, G101E, Y104S, A106G
VL: DIQLTQSPSSLSASVGDRVTITCRASQDIRKFLAWYQQKPGKAPKLLIYDASSLESGVPSRFSGSGSGTDFTLTISSLQPEDFATYYCQQSYRSPRTFGQGTKVEIKR
notes: hIgG4/S241P
B3: TY24878 (antibody, human IgG4 S228P, kappa, V domains shown)
VH: QVQLVQSGAEVKKPGSSVKVSCKASGFSLSTGGVAVAWIRQAPGQGLEWIGQIYYSGSTYYNPSLKSRVTITADKSTSTAYMELSSLRSEDTAVYYCARSSAHYYFDVWGQGTLVTVSS
VL: DIQLTQSPSSLSASVGDRVTITCRASESVDFQGISFLDWYQQKPGKAPKLLIYDASSLESGVPSRFSGSGSGTDFTLTISSLQPEDFATYYCQQSYRSPITFGQGTKVEIKR
notes: hIgG4/S241P
B4: TY24869 (antibody, human IgG4 S228P, kappa, V domains shown)
VH: QVQLVQSGAEVKKPGSSVKVSCKASGYSISSGYHWGWIRQAPGQGLEWIGAIYHSGSTYYSPSLKSRVTITADKSTSTAYMELSSLRSEDTAVYYCARSGLVYYAFDYWGQGTLVTVSS
VL: B2 VL with D28G, R30G, K31S, F32Y, S91Y, Y92S, R93T, R96L
notes: hIgG4/S241P
B5: TY24876 (antibody, human IgG4 S228P, kappa, V domains shown)
VH: B4 VH with S30T, S99G, G100P, V102S
VL: DIQLTQSPSSLSASVGDRVTITCRASQSVSRYLAWYQQKPGKAPKLLIYDASNRATGIPSRFSGSGSGTDFTLTISSLQPEDFATYYCQQYYRSPITFGQGTKVEIKR
notes: hIgG4/S241P
B6: TY24879 (antibody, human IgG4 S228P, kappa, V domains shown)
VH: B4 VH with A51S, S61N, V102R, Y108V
VL: B2 VL with R24A, I29V, R30S, K31T, F32A, L33V, D50A, E55Q, R96I
notes: hIgG4/S241P
B7: TY21601 (antibody, V domains shown)
VH: EVQLVESGGGLVQPGGSLRLSCAASGFTFSGYGIHWVRQAPGKGLEWIGWISPSGGDTKYAQKFQGRVTISRDNSKNTLYLQLNSLRAEDTAVYYCARGGTVVYFDYWGQGTLVTVSS
VL: DIQLTQSPSSLSASVGDRVTITCRASQSIRKYLNWYQQKPGKAPKLLIYAASTLQSGVPSRFSGSGSGTDFTLTISSLQPEDFATYFCSQGTHVPFTFGQGTKVEIK
notes: also called parental anti-B7H3 mAb; B7H3 IgG
B8: TY29021 (bispecific antibody, human IgG1, kappa, N297A)
light: DIQLTQSPSSLSASVGDRVTITCRASQSIRKYLNWYQQKPGKAPKLLIYAASTLQSGVPSRFSGSGSGTDFTLTISSLQPEDFATYFCSQGTHVPFTFGQGTKVEIKRTVAAPSVFIFPPSDEQLKSGTASVVCLLNNFYPREAKVQWKVDNALQSGNSQESVTEQDSKDSTYSLSSTLTLSKADYEKHKVYACEVTHQGLSSPVTKSFNRGEC
heavy: EVQLVESGGGLVQPGGSLRLSCAASGFTFSGYGIHWVRQAPGKGLEWIGWISPSGGDTKYAQKFQGRVTISRDNSKNTLYLQLNSLRAEDTAVYYCARGGTVVYFDYWGQGTLVTVSSASTKGPSVFPLAPSSKSTSGGTAALGCLVKDYFPEPVTVSWNSGALTSGVHTFPAVLQSSGLYSLSSVVTVPSSSLGTQTYICNVNHKPSNTKVDKKVEPKSCDKTHTCPPCPAPELLGGPSVFLFPPKPKDTLMISRTPEVTCVVVDVSHEDPEVKFNWYVDGVEVHNAKTKPREEQYASTYRVVSVLTVLHQDWLNGKEYKCKVSNKALPAPIEKTISKAKGQPREPQVYTLPPSRKKLTKNQVKLTCLVKGFYPSDIAVEWESNGQPENNYKTTPPVLDCDGSFFLYSKLTVDKSRWQQGNVFSCSVMHEALHNHYTQKSLSLSPGK
chain: EVQLVESGGGLVQPGGSLRLSCAASGFSLSTGGVGVSWIRQAPGKGLEWIGEIYHSGSTYYSPSLKSRVTISRDNSKNTLYLQLNSLRAEDTAVYYCARYEYYYYDFDYWGQGTLVTVSSGGGGSGGGGSGGGGSGGGGSDIQLTQSPSSLSASVGDRVTITCRASQSVDFHGISFLHWYQQKPGKAPKLLIYAASSLQSGVPSRFSGSGSGTDFTLTISSLQPEDFATYYCQQSYRSPRTFGQGTKVEIKEPKSSDKTHTCPPCPAPELLGGPSVFLFPPKPKDTLMISRTPEVTCVVVDVSHEDPEVKFNWYVDGVEVHNAKTKPREEQYASTYRVVSVLTVLHQDWLNGKEYKCKVSNKALPAPIEKTISKAKGQPREPQVYTDPPSRDELTKNQVSLTCLVDGFYPSDIAVEWESNGQPENCYKTTPPVLDSDGSFFLYSKLTVDKSRWQQGNVFSCSVMHEALHNHYTQDSLSLSPGK
notes: anti-B7H3 Fab x CD28 scFv WT (VH-VL)-Fc; also called TY29021 (WT)

Legend:
[1] = molecular target: T2, Human CD28 (ELISAs of Examples 4 and 13) (human, UniProt P10747 19-152, limits assumed); assay: ELISA, blocking of CD28-CD80
Human CD28 on cells = molecular target: T3, Human CD28 on cells (human, UniProt P10747 19-220); assay: flow cytometry, Jurkat cells
T3 construct: Jurkat E6-1 cells, primary human T cells, or transfected HEK293F cells; also called CD28 on Jurkat cells; CD28 on human CD3+ T cells
Experimental: Next, the cells were washed twice with DPBS and further incubated with a APC-anti-human IgG Fc secondary antibody (1 μg/mL, 100 μL/well, Biolegend) for 30 minutes at 4° C. Finally, the cells were washed twice with DPBS and suspended in FACS buffer for flow cytometry analysis. For analysis, the Mean Fluorescence Intensity (MFI) values versus concentrations were plotted using FlowJo 10 software (FlowJo LLC) and the data were further fitted with four-parameter non-linear regression to obtain EC₅₀ values by GraphPad Prism version 7 for Windows, GraphPad Software, La Jolla California USA, www.graphpad.com.

[2] = molecular target: T4, Recombinant human CD28-Fc (human, UniProt P10747 19-152); assay: ELISA, coated CD28-Fc
T4 construct: not shown: Fc part

[3] = molecular target: T5, Recombinant mouse CD28-Fc (mouse, UniProt P31041 20-150); assay: ELISA, coated CD28-Fc
T5 construct: not shown: Fc part
T5 sequence (P31041 20-150 limits assumed): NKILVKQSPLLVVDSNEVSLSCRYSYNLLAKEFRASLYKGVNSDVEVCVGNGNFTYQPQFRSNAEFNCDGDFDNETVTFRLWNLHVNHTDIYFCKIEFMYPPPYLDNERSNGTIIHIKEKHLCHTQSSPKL

[4] = molecular target: T6, His-tagged human CD28 protein (human, UniProt P10747 19-152); assay: Octet BLI, mAb captured;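 further: Anti-human Fc biosensors captured the antibodies, then His-tagged protein analytes at 100 nM associated for 300 s and dissociated for 300 s, fitted by a 1:1 Langmuir model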
T6 construct: not shown: His tag

[5] = molecular target: T7, His-tagged human CTLA4 protein (human, UniProt P16410 36-161, limits assumed); assay: Octet BLI, mAb captured;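 further: Anti-human Fc biosensors captured the antibodies, then His-tagged protein analytes at 100 nM associated for 300 s and dissociated for 300 s, fitted by a 1:1 Langmuir model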
T7 construct: not shown: His tag
T7 sequence (P16410 36-161 limits assumed): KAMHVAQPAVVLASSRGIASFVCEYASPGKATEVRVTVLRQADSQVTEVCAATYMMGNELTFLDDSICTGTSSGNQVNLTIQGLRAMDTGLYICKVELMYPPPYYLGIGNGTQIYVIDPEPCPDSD

B7H3 on MDA-MB-231 cells = molecular target: T1, B7H3 on MDA-MB-231 cells; assay: flow cytometry, MDA-MB-231 cells
Experimental: An isotype antibody was included as a negative control.
MDA-MB-231 cells were cultured and seeded in 96-well plates at 1.0×10⁵ cells/well and incubated with serially diluted test BsAbs for 60 minutes at 4° C. in 2% FBS/RPMI1640 buffer. Next, the cells were washed twice with DPBS and further incubated with secondary APC-anti-human IgG Fe antibody (1:400 dilution) for 30 minutes at 4° C. Finally, the cells were washed twice with DPBS and resuspended in FACS buffer for flow cytometry analysis. For analysis, the MFI values versus concentrations were plotted using FlowJo 10 software (FlowJo LLC) and the data were further fitted with four-parameter non-linear regression to obtain EC₅₀ values by GraphPad Prism version 7 for Windows.

[6] = molecular target: T2, Human CD28 (ELISAs of Examples 4 and 13); assay: ELISA
Mouse CD28 on cells = molecular target: T8, Mouse CD28 on cells (mouse, UniProt P31041 20-218); assay: flow cytometry on mouse T cells, median fluorescence intensity; drawn table; parameters: AUC: unit not given beside the values
T8 construct: also called CD28 on mouse T cells
T8 sequence (P31041 20-218 limits assumed): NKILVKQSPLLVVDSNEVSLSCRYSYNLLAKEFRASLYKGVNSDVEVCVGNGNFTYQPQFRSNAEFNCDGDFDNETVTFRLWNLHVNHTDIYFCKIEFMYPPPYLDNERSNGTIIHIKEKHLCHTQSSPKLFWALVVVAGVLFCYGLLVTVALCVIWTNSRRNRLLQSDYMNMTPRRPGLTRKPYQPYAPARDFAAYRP

| Binder | IC50 [1] [nM] | EC50 (Human CD28 on cells) [nM] | EC50 [2] [nM] | EC50 [3] [nM] | Kd [4] [nM] | koff [4] [s⁻¹] | kon [4] [M⁻¹ s⁻¹] | Kd [5] [nM] | koff [5] [s⁻¹] | kon [5] [M⁻¹ s⁻¹] | EC50 (B7H3 on MDA-MB-231 cells) [nM] | EC50 [6] [nM] | AUC (Mouse CD28 on cells) | Max MFI (Mouse CD28 on cells) |
| --- | --- | --- | --- | --- | --- | --- | --- | --- | --- | --- | --- | --- | --- | --- |
| B1 | 0.42 | 0.97 | 1.34 | > 44.4 | 2.68 | 0.00019 | 70800 | 6.63 | 0.00311 | 469000 | – | – | – | – |
| B2 | 0.27 | 0.7 | 0.57 | > 1.65 | < 0.001 | < 1e-07 | 58000 | 7.64 | 0.004 | 524000 | – | – | – | – |
| B3 | 0.35 | 0.39 | 1.06 | > 14.8 | 4.21 | 0.000411 | 97500 | 0.969 | 0.00041 | 423000 | – | – | – | – |
| B4 | 0.55 | 1.07 | 0.87 | > 14.8 | 2.73 | 0.000128 | 46800 | 1.2 | 0.000454 | 379000 | – | – | – | – |
| B5 | 0.54 | 0.38 | 1.02 | 3.93 | < 0.001 | < 1e-07 | 32500 | 4.28 | 0.000585 | 137000 | – | – | – | – |
| B6 | 0.42 | 1.17 | 0.9 | > 1.65 | < 0.001 | < 1e-07 | 59400 | 7.17 | 0.00313 | 437000 | – | – | – | – |
| B7 | – | – | – | – | – | – | – | – | – | – | 0.453 | – | – | – |
| B8 | – | – | – | – | – | – | – | – | – | – | – | 36.4 | 549 | 364 |
